Source: the supplement of paper PMC10567573

B1: POLD4 (parent)
chain: ITDSYPVVKRREGPAGHSKGELAP
B2: MYOZ1 (parent)
chain: FSDSSMDHFQKFLPTVGGQLGTAG

Variants of: B1
Test: protein stability index of a GFP-peptide fusion (GPS, HEK-293T) (PSI 1-6); higher = more stable
Conditions: c terminus: a fixed tail appended
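Also: lentivirally expressed fusions sorted by FACS into six bins by GFP to DsRed ratio, PSI derived from sequencing read proportions per bin multiplied by bin number.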

Protein stability index, by site and new letter:
I1: D 5.18; R 4.81; Q 4.43; F 1.59; A 4.82; Y 2.62; P 3.23; G 4.68; S 5.09; V 4.4; C 4.11; T 4.79; L 3.44; H 3.73; M 2.72
T2: D 4.35; F 4.27; A 2.43

Variants of: B2
Test: as above
Conditions: c terminus: a fixed tail appended

Protein stability index of substitutions, site by site:
T22: F 1.82; S 2.19; A 2.29; L 3.17; N 2.54; W 1.43; P 2.15; I 2.57; D 2.86; R 2.16; C 1.81; M 2.14; E 3.05; K 3.06; H 1.86; Q 2.36; Y 2.05; G 2.09
G18: R 2.79; C 2.04; Q 2.63; S 2.48; D 3.05; F 1.51; H 2.04; M 2.49; W 1.85; V 1.94; T 2.55; A 1.92; L 2.3; I 1.52; P 2.43; K 2; E 3.48; N 2.67; Y 1.64
G17: Q 2.53; I 2.47; L 1.56; T 2.56; E 2.98; R 1.92; K 2.02; N 2.98; M 2.06; P 2.59; S 2.26; Y 2.26; C 1.97; V 2.38; W 2.03; D 2.33; A 2.48; H 2.47; F 1.85
L20: Q 2.66; F 2.25; D 3.24; P 3.12; V 2.25; C 1.66; H 2.79; Y 2.27; S 3.71; R 2.98; I 2.69; T 2.53; G 3.24; A 2.58; N 2.97; E 3.51; W 1.56; K 3.1; M 2.35
K11: D 3.32; R 2.12; T 2.45; P 2.46; C 1.8; Y 2.15; L 1.67; Q 2.66; W 1.02; A 1.79; E 3.51; I 2.12; M 1.34; N 2.56; G 3.21; H 2.38; S 2.37; F 2.07
H8: Q 2.58; F 1.38; K 2.15; A 1.84; T 2.51; W 2.22; Y 2.08; R 1.61; I 2.21; G 2.07; D 2.49; S 1.53; V 1.76; P 2.36; C 1.72; L 1.35; E 2.34; N 2.48
T15: H 2.69; F 2.13; P 2.51; S 2.93; A 2.64; D 2.61; K 2.64; L 1.9; W 1.33; Y 1.93; R 2.08; N 1.7; M 1.85; G 2.46; C 2.33; V 2.66; Q 2.94; E 2.5; I 2.43
F9: D 4.52; G 4.56; N 3.84; T 2.48; S 3.61; V 3.71; H 2.57; W 1.89; K 3.09; Q 3.88; Y 2.78; P 4.38; A 2.71; C 2.92; M 3.37; L 2.16; R 2.6; I 2.46; E 4.4
Q19: V 1.89; S 2.2; F 1.42; W 2.35; T 2.29; D 2.58; N 2.08; H 1.74; Y 2.04; A 1.79; E 3.12; L 2.16; P 2.51; I 2.01; K 2.33; C 1.96; M 2.03; R 3.06; G 2.05
P14: Q 2.38; M 2.68; G 1.58; T 2.25; V 3.62; R 1.44; N 1.47; C 1.41; L 4.1; F 2.83; D 1.61
Q10: A 2.33; G 2.57; P 3.23; C 2.06; S 2.07; K 2.14; N 2.42; H 2.31; I 2.91; Y 1.47; R 1.13; F 2.3; E 1.95; T 2.15; D 3.15; V 1.77; M 2.02; L 1.3
V16: L 2.28; H 2.75; T 3.09; K 2.64; S 2.94; Y 1.92; M 2.46; W 2.44; F 2.75; P 2.56; R 2.46; E 4.23; I 2.13; A 3.19; G 2.98; Q 3.19; C 2.38; N 2.26; D 2.85
F12: S 3.67; E 4.6; N 3.68; L 2.88; I 2.08; C 2.92; D 4.08; Y 2.77; K 3.67; W 1.85; H 3.28; A 3.98; G 3.15; T 3.16; R 3.5; Q 3.04; M 3.11; P 3.61
G21: P 2.54; L 2.71; M 2.28; F 1.62; K 2.32; S 1.69; A 1.87; I 1.76; V 1.75; T 2.13; W 1.76; D 2.81; Q 2.04; Y 1.59; E 2.35; C 1.61; R 2.25; H 2.14; N 2.98
L13: D 3.44; E 4.42; V 2.97; W 1.82; Q 3.18; S 2.76; A 2.52; K 3.53; H 3.29; M 3.29; I 1.9; F 3.09; Y 2.76; C 2.75; G 3.44; R 2.92; N 3.1; T 3.53; P 3.06
A23: P 2.22; K 2.14; H 2.3; T 2.59; E 2.92; D 2.68; Q 2.62; W 2.01; S 1.83; F 2.49; C 2.08; L 2.01; N 2.68; R 2.95; M 1.63; G 2.77; Y 2.19; I 1.91
G24: T 1.89; M 1.92; V 2.42; Q 1.98; C 1.95; H 2.33; W 1.23; R 2.22; A 1.71; D 3.09; L 2.36; P 2.25; S 1.98; K 2.16; N 2.03; I 1.54; E 2.54; Y 1.2
D7: M 1.38; Q 2.02; P 2.38; V 2.15; R 2.6; L 1.55; S 2.56; T 2.15
